Measurements reported in EP4628095A1 (Xiamen University, dated 2025).

Experiments:
[1] = target: P2-2C-RBD (insect cell expression system); test: SPR (Biacore 8K), HEV-p239 coupled to CM5 chip (Fig. 10A)
[2] = target: P1-1G-RBD (insect cell expression system); test: as above
[3] = target: T1, P2-4G-BGTSTIP; test: SPR (Biacore 8K), HEV-p239 coupled to CM5 chip (Fig. 12)
T1 construct: also called PA-4G-BGTSTIP; VHH-BGTSTIP

Measured: binding result

B1: HEV-p239 protein (other)
chain: IALTLFNLADTLLGGLPTELISSAGGQLFYSRPVVSANGEPTVKLYTSVENAQQDKGIAIPHDIDLGESRVVIQDYDNQHEQDRPTPSPAPSRPFSVLRANDVLWLSLTAAEYDQSTYGSSTGPVYVSDSVTLVNVATGAQAVARSLDWTKVTLDGRPLSTIQQYSKTFFVLPLRGKLSFWEAGTTKAGYPYNYNTTASDQLLVENAAGHRVAISTYTTSLGAGPVSISAVAVLAPHSV
notes: also called HEV-p239 particles; HEV particles
binds: all assays above
